Results published in paper PMC8626073.

Biological target: T1, NlFMD-F (female-specific isoform, SR-rich protein) (Nilaparvata lugens, UniProt A0A974LNP1 1-613)
T1 sequence: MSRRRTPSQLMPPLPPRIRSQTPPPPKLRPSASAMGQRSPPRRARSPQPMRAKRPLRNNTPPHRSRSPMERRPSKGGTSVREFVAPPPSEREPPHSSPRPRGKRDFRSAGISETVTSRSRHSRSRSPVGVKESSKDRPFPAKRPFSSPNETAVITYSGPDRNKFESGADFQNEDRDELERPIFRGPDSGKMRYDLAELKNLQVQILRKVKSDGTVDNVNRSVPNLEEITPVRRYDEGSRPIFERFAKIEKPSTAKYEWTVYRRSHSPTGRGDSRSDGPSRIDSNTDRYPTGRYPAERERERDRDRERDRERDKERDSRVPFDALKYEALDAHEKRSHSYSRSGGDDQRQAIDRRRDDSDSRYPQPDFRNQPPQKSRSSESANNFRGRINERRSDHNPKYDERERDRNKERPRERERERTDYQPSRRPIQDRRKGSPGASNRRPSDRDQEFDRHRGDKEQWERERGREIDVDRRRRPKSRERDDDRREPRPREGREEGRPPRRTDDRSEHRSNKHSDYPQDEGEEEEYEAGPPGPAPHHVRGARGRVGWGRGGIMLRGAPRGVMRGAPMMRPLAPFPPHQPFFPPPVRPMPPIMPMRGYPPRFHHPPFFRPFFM
Experiment: MST

GAAGAAGAA (ssRNA) [GAAGAAGAA repeat (RAAGAA motif)]: no binding.
